Among the data in patent US20240117035A1 are EC50 values, retold here.

The target of one test is Jurkat (human) (UniProt P07766). The test is described as follows: FACS binding, Jurkat cells. The following applies: bispecific antibody.
For the next test, the target named is SNU620 (human) (UniProt P56856). The test is described as follows: FACS binding, SNU620 cells. The following applies: bispecific antibody.

Jurkat (human), sequence (P07766 23-207): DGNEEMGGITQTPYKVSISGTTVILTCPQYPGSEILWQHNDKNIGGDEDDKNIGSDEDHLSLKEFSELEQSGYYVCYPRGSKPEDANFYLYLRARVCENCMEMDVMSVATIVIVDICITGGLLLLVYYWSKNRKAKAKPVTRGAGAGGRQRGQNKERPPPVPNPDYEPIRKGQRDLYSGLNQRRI

For AMG-910, the EC50 is 0.55 nM in the test with Jurkat (human) and 87.8 nM with SNU620 (human).
